Assay results taken from article PMC4381075, “An intrinsically disordered region of methyl-CpG binding domain protein 2 (MBD2) recruits the histone deacetylase core of the NuRD complex”.

Assays:
MBD2FLsc (human) [1] = biological target: MBD2FLsc (human) (UniProt Q9UBB5); assay: SPR; conditions: 5-methyl-C at position 9 of strand 1 (central CpG), complement mC at position 8 implied, not given, SPR: 10 mM HEPES pH 7.4, 50 mM NaCl, 3 mM MgCl2, 0.1 mM EDTA, 1 mM DTT, 0.05% polysorbate 20, FP: 10 mM HEPES pH 7.5, 50 or 150 mM NaCl
MBD2FLsc (human) [2] = biological target: MBD2FLsc (human) (UniProt Q9UBB5); assay: fluorescence polarization; conditions: 5-methyl-C at position 9 of strand 1 (central CpG), complement mC at position 8 implied, not given, SPR: 10 mM HEPES pH 7.4, 50 mM NaCl, 3 mM MgCl2, 0.1 mM EDTA, 1 mM DTT, 0.05% polysorbate 20, FP: 10 mM HEPES pH 7.5, 50 or 150 mM NaCl
MBD2MBD [3] = biological target: T1, MBD2MBD (human, UniProt Q9UBB5 150-214); assay: SPR steady state; 50 mM NaCl, 3 mM Mg2+; SPR: 10 mM HEPES pH 7.4, 50 mM NaCl, 3 mM MgCl2, 0.1 mM EDTA, 1 mM DTT, 0.05% polysorbate 20; FP: 10 mM HEPES pH 7.5, 50 or 150 mM NaCl, 3 mM MgCl2, 0.1 mM EDTA, 1 mM DTT, 0.02% azide; temperature not stated; conditions: protein: recombinant; tags: thioredoxin-His fusion (modified pET32a; tag retained); label: 3' biotin on forward strand; blunt
MBD2(150-260) [4] = biological target: T2, MBD2(150-260) (human, UniProt Q9UBB5 150-260); assay: SPR; 50 mM NaCl, 3 mM Mg2+; SPR: 10 mM HEPES pH 7.4, 50 mM NaCl, 3 mM MgCl2, 0.1 mM EDTA, 1 mM DTT, 0.05% polysorbate 20; FP: 10 mM HEPES pH 7.5, 50 or 150 mM NaCl, 3 mM MgCl2, 0.1 mM EDTA, 1 mM DTT, 0.02% azide; temperature not stated; conditions: protein: recombinant; tags: thioredoxin-His fusion (modified pET32a; tag retained); label: 3' biotin on forward strand; blunt
MBD2MBD [5] = biological target: T1, MBD2MBD; assay: fluorescence polarization; 50 mM NaCl; SPR: 10 mM HEPES pH 7.4, 50 mM NaCl, 3 mM MgCl2, 0.1 mM EDTA, 1 mM DTT, 0.05% polysorbate 20; FP: 10 mM HEPES pH 7.5, 50 or 150 mM NaCl, 3 mM MgCl2, 0.1 mM EDTA, 1 mM DTT, 0.02% azide; temperature not stated; conditions: protein: recombinant; tags: thioredoxin-His fusion (modified pET32a; tag retained); label: 3' FAM on reverse strand; blunt
MBD2(150-260) [6] = biological target: T2, MBD2(150-260); assay: as above; conditions: protein: recombinant; tags: thioredoxin-His fusion (modified pET32a; tag retained); label: 3' FAM on reverse strand; blunt

Sequence of MBD2FLsc (human) (Q9UBB5 whole entry, the tested form may be a part): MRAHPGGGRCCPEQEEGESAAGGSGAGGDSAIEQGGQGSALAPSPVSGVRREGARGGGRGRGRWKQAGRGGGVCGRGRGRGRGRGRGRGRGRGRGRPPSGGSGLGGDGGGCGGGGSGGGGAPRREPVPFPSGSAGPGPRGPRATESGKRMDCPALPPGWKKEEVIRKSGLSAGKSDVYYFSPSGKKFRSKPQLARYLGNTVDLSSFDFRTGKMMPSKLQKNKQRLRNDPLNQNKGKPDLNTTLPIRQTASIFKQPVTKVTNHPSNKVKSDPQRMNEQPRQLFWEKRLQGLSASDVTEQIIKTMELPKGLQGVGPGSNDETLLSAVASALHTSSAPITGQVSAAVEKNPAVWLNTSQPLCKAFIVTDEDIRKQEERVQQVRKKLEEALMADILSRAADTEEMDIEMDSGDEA
T2 sequence (Q9UBB5 150-260): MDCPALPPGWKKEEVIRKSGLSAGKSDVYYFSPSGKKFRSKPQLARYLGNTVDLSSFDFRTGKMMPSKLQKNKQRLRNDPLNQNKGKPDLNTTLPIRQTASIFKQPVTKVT
T1 sequence (Q9UBB5 150-214): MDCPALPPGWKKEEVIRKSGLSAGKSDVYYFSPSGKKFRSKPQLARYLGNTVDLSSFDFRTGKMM

Molecule: GAGGCGCTCGGCGGCAG (double strand) [17 bp central mCpG, SPR]
- Kd (MBD2FLsc (human) [1]): 2 nM

Molecule: GAGGCGCTCGGCGGCAG (double strand) [17 bp central mCpG, FP]
- binding signal (fold affinity vs 50 mM NaCl) (MBD2FLsc (human) [2]): 0.1
- binding signal (fold affinity vs MBD2MBD) (MBD2FLsc (human) [2]): 100

B1: 17 bp central mCpG, SPR (dsDNA)
DNA 1: GAGGCGCTCGGCGGCAG
DNA 2: CTGCCGCCGAGCGCCTC
modifications: 5-methyl-C at position 9 of strand 1 (central CpG); complement mC at position 8 implied, not given
- Kd (MBD2MBD [3]): 330 nM
- Kd (MBD2(150-260) [4]): 20 nM

B2: 17 bp central mCpG, FP (dsDNA)
DNA 1: GAGGCGCTCGGCGGCAG
DNA 2: CTGCCGCCGAGCGCCTC
modifications: 5-methyl-C at position 9 of strand 1 (central CpG); complement mC at position 8 implied, not given
- binding signal (MBD2MBD [5]): ~1 fold affinity (reference)
- binding signal (MBD2(150-260) [6]): ~100 fold affinity vs MBD2MBD
